This note sets out measurements from patent publication US20220298260A1 (MYTHIC THERAPEUTICS, published 2022).

The experiment concerns the target T1, FOLR1 (R&D Systems, Cat #5646-FR) (human, UniProt P15328 25-233).
T1 construct: Bought soluble protein; also called Folate Receptor 1
The experiment is described as follows: BLI, IgG on anti-human Fc sensor, 50 nM FOLR1. A general note: Biolayer interferometry detects binding as a change in optical thickness at a sensor tip.

Changes are numbered by the printed parent chain.

T1 sequence (P15328 25-233 limits assumed): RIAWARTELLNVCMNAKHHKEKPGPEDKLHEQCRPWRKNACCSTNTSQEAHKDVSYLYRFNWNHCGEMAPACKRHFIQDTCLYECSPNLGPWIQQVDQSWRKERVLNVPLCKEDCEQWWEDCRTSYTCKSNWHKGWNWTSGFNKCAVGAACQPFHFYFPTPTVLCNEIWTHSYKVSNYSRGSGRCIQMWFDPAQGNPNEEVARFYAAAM

B1: MYT2248 (antibody, V domains shown)
VH: EVQLVESGGGLVQPGGSLRLSCAASGFNIRTQSIHWVRQAPGKGLEWIGDIFPIDGITDYADHVKGRFTISADTSKNTAYLQMNSLRAEDTAVYYCARGSWSWPSGMDYYLDYWGQGTLVTVSS
VL: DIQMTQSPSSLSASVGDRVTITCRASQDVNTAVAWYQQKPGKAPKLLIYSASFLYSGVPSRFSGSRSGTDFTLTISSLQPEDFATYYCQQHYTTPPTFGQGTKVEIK
notes: IgG
As for B1, the binding result was “binds”.

B2: MYT4516 (antibody, V domains shown)
VH: B1 VH with H63S
VL: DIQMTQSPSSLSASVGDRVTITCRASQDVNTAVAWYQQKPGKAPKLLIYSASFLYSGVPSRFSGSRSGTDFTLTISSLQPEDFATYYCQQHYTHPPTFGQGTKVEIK
notes: IgG
As for B2, the binding result is “binds”.

B3: MYT2264 (antibody, V domains shown)
VH: B1 VH with H63S, Y109H
VL: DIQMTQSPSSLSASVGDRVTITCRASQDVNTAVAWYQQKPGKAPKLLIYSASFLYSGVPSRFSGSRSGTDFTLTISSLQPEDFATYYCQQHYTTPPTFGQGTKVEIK
notes: IgG
Take B3: the binding result is on record as “binds”.

B4: MYT2267 (antibody, V domains shown)
VH: B1 VH with H63S, D112H
VL: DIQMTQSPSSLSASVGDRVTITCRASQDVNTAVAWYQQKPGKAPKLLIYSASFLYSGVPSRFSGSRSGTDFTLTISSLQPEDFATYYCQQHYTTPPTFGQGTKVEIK
notes: IgG
B4: the binding result is listed as “binds”.

B5: MYT2250 (antibody, V domains shown)
VH: B1 VH with H63S, K65H
VL: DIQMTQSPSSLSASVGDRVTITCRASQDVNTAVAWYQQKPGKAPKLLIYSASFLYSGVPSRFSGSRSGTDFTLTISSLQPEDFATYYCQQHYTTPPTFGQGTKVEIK
notes: IgG
Regarding B5, the binding result is reported as “binds”.

B6: MYT4499 (antibody, V domains shown)
VH: B1 VH with H63S
VL: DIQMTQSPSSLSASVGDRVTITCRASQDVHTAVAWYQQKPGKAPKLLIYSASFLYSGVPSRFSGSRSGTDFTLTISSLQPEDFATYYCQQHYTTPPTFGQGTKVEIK
notes: IgG
B6: the binding result is on record as “binds”.

B7: MYT4500 (antibody, V domains shown)
VH: B1 VH with H63S
VL: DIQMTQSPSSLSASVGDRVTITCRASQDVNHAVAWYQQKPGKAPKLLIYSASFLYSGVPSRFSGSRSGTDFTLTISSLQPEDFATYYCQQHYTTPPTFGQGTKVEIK
notes: IgG
Turning to B7, the binding result was “binds”.

B8: MYT2255 (antibody, V domains shown)
VH: B1 VH with H63S, S100H
VL: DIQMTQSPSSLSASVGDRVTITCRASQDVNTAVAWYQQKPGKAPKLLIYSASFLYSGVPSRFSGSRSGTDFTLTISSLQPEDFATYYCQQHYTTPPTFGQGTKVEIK
notes: IgG
For the molecule B8, the binding result is recorded as “binds”.

B9: MYT4510 (antibody, V domains shown)
VH: B1 VH with H63S
VL: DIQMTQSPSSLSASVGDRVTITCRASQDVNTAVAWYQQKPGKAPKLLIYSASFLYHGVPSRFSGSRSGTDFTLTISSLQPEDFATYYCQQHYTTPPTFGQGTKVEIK
notes: IgG
As to B9, the binding result is given as “binds”.

B10: MYT2258 (antibody, V domains shown)
VH: B1 VH with H63S, W103H
VL: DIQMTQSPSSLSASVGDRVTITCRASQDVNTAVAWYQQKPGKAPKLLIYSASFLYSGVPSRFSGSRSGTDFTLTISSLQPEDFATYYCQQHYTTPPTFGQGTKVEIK
notes: IgG
For B10, the binding result was “binds”.

B11: MYT2249 (antibody, V domains shown)
VH: B1 VH with H63S, V64H
VL: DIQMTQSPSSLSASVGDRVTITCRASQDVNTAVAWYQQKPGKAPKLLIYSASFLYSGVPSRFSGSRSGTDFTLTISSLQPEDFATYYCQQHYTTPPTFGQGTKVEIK
notes: IgG
For the molecule B11, the binding result is reported as “binds”.

B12: MYT4517 (antibody, V domains shown)
VH: B1 VH with H63S
VL: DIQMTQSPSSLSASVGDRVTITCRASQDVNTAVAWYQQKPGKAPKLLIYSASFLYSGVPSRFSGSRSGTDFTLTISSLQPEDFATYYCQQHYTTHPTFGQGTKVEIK
notes: IgG
Take B12: the binding result is reported as “binds”.

B13: MYT2253 (antibody, V domains shown)
VH: B1 VH with H63S, R98H
VL: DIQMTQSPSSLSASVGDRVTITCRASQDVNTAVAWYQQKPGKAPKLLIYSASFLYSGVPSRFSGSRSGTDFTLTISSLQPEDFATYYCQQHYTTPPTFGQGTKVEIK
notes: IgG
With B13, the binding result is on record as “binds”.

B14: MYT2262 (antibody, V domains shown)
VH: B1 VH with H63S, M107H
VL: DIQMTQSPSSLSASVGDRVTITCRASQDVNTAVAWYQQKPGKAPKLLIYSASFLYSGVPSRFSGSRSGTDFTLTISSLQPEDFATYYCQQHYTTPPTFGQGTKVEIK
notes: IgG
Regarding B14, the binding result is “binds”.

B15: MYT4495 (antibody, V domains shown)
VH: B1 VH with H63S
VL: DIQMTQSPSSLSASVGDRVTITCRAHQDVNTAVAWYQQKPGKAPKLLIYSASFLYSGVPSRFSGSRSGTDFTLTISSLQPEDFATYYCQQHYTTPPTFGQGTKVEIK
notes: IgG
Turning to B15, the binding result is listed as “binds”.

B16: MYT4507 (antibody, V domains shown)
VH: B1 VH with H63S
VL: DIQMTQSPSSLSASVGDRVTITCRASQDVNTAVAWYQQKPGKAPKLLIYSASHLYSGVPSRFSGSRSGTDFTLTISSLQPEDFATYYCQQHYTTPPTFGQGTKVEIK
notes: IgG
Turning to B16, the binding result was “binds”.

B17: MYT4515 (antibody, V domains shown)
VH: B1 VH with H63S
VL: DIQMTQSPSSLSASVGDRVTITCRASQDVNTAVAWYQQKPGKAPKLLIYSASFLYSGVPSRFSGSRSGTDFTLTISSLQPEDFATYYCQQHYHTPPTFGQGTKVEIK
notes: IgG
On to B17, for which the binding result is “binds”.

B18: MYT4518 (antibody, V domains shown)
VH: B1 VH with H63S
VL: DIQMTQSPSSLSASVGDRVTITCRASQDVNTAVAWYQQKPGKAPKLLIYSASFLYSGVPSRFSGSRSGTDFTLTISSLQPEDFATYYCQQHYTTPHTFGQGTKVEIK
notes: IgG
For B18, the binding result is reported as “binds”.

B19: MYT2268 (antibody, V domains shown)
VH: B1 VH with H63S, Y113H
VL: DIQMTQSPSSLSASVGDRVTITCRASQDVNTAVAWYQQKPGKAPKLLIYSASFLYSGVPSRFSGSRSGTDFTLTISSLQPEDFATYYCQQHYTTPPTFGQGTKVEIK
notes: IgG
In the case of B19, the binding result is “binds”.

B20: MYT4497 (antibody, V domains shown)
VH: B1 VH with H63S
VL: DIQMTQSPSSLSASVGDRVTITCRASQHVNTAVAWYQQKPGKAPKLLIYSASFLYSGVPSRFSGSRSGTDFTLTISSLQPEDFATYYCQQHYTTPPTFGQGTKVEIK
notes: IgG
As for B20, the binding result is on record as “binds”.

B21: MYT4502 (antibody, V domains shown)
VH: B1 VH with H63S
VL: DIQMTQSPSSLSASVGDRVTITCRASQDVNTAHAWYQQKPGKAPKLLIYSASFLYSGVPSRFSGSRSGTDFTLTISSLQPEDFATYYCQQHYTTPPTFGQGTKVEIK
notes: IgG
In the case of B21, the binding result is “binds”.

B22: MYT4511 (antibody, V domains shown)
VH: B1 VH with H63S
VL: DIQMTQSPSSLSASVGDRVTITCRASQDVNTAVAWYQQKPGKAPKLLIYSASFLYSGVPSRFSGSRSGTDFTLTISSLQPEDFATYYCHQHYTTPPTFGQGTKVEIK
notes: IgG
Take B22: the binding result is “binds”.

B23: MYT2263 (antibody, V domains shown)
VH: B1 VH with H63S, D108H
VL: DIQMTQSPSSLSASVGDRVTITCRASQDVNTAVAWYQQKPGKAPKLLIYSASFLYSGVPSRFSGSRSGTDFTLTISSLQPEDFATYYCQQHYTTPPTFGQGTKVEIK
notes: IgG
As to B23, the binding result is on record as “binds”.

B24: MYT4513 (antibody, V domains shown)
VH: B1 VH with H63S
VL: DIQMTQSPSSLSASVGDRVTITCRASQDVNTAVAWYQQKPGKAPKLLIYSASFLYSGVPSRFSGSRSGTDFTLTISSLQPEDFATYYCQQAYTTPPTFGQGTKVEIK
notes: IgG
In the case of B24, the binding result was “binds”.

B25: MYT2260 (antibody, V domains shown)
VH: B1 VH with H63S, S105H
VL: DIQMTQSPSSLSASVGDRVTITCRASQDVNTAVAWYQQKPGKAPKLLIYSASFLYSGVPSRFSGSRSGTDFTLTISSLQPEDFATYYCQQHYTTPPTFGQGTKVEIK
notes: IgG
As to B25, the binding result is given as “binds”.

B26: MYT4509 (antibody, V domains shown)
VH: B1 VH with H63S
VL: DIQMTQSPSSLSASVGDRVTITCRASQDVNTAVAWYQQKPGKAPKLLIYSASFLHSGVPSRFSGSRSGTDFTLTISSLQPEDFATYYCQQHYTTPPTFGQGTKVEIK
notes: IgG
On to B26, for which the binding result is recorded as “binds”.

B27: MYT4504 (antibody, V domains shown)
VH: B1 VH with H63S
VL: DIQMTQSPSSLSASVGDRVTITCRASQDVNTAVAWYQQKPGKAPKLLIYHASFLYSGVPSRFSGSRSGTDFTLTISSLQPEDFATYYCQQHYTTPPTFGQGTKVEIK
notes: IgG
With B27, the binding result is reported as “binds”.

B28: MYT4508 (antibody, V domains shown)
VH: B1 VH with H63S
VL: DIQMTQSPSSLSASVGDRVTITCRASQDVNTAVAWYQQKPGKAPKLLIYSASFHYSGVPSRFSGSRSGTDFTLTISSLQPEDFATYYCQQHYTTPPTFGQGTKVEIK
notes: IgG
With B28, the binding result is recorded as “binds”.

B29: MYT4514 (antibody, V domains shown)
VH: B1 VH with H63S
VL: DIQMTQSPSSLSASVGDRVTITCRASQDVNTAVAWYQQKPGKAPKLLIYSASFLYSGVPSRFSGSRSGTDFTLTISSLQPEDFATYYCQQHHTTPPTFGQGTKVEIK
notes: IgG
As for B29, the binding result is “binds”.

B30: MYT4506 (antibody, V domains shown)
VH: B1 VH with H63S
VL: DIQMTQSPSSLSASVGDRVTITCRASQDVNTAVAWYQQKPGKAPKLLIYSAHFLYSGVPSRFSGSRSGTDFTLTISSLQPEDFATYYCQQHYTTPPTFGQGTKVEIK
notes: IgG
Consider B30, for which the binding result is “binds”.

B31: MYT4493 (antibody, V domains shown)
VH: B1 VH with H63S
VL: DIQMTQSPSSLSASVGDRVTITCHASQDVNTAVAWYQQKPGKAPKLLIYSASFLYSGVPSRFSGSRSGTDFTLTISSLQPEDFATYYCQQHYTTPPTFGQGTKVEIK
notes: IgG
As for B31, the binding result is “binds”.

B32: MYT4519 (antibody, V domains shown)
VH: B1 VH with H63S
VL: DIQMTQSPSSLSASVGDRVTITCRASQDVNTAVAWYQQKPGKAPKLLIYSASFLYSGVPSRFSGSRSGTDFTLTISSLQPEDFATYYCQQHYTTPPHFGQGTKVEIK
notes: IgG
As to B32, the binding result was “binds”.

B33: MYT2266 (antibody, V domains shown)
VH: B1 VH with H63S, L111H
VL: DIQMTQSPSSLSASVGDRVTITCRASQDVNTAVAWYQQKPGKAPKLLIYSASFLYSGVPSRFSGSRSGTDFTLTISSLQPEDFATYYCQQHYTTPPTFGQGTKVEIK
notes: IgG
With B33, the binding result is “binds”.

B34: MYT2256 (antibody, V domains shown)
VH: B1 VH with H63S, W101H
VL: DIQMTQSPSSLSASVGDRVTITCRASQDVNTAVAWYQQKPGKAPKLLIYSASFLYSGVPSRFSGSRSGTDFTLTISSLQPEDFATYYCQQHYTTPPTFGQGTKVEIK
notes: IgG
As to B34, the binding result was “binds”.

B35: MYT2251 (antibody, V domains shown)
VH: B1 VH with H63S, G66H
VL: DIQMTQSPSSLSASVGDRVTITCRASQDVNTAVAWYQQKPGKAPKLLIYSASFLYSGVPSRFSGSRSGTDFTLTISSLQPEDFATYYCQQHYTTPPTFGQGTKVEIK
notes: IgG
On to B35, for which the binding result is listed as “binds”.

B36: MYT4512 (antibody, V domains shown)
VH: B1 VH with H63S
VL: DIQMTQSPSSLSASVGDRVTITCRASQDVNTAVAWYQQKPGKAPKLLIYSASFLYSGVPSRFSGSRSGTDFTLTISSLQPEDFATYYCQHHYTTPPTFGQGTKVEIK
notes: IgG
With B36, the binding result is given as “binds”.

B37: MYT2257 (antibody, V domains shown)
VH: B1 VH with H63S, S102H
VL: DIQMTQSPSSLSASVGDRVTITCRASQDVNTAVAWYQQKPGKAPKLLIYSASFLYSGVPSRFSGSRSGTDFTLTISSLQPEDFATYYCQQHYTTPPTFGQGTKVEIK
notes: IgG
As to B37, the binding result is “binds”.

B38: MYT4496 (antibody, V domains shown)
VH: B1 VH with H63S
VL: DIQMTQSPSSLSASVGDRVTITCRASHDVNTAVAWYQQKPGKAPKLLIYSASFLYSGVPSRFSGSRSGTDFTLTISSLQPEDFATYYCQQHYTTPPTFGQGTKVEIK
notes: IgG
B38: the binding result is “binds”.

B39: MYT2265 (antibody, V domains shown)
VH: B1 VH with H63S, Y110H
VL: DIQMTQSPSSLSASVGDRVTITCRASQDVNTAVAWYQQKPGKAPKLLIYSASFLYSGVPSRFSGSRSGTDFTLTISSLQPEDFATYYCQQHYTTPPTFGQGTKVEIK
notes: IgG
As to B39, the binding result is listed as “binds”.

B40: MYT4498 (antibody, V domains shown)
VH: B1 VH with H63S
VL: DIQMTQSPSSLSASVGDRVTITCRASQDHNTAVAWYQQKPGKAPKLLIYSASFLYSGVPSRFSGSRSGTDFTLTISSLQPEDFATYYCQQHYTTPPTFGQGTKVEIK
notes: IgG
On to B40, for which the binding result was “binds”.

B41: MYT4494 (antibody, V domains shown)
VH: B1 VH with H63S
VL: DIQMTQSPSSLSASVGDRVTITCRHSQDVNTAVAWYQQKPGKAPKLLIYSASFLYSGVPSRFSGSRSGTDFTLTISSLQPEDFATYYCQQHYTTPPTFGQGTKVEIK
notes: IgG
In the case of B41, the binding result is “binds”.

B42: MYT2185 (antibody, V domains shown)
VH: EVQLVESGGGVVQPGRSLRLSCSASHFTFSGYGLSWVRQAPGKGLEWVAMISSGGSYTYYADSVKGRFAISRDNAKNTLFLQMDSLRPEDTGVYFCARHGDDPAWFAYWGQGTPVTVSS
VL: DIQLTQSPSSLSASVGDRVTITCSVSSSISSNNLHWYQQKPGKAPKPWIYGTSNLASGVPSRFSGSGSGTDYTFTISSLQPEDIATYYCQQWSSYPYMYTFGQGTKVEIK
notes: IgG
Consider B42, for which the binding result is listed as “binds”.

B43: MYT2191 (antibody, V domains shown)
VH: B42 VH with H26G, Y32H
VL: B42 VL
notes: IgG
As to B43, the binding result is recorded as “binds”.

B44: MYT2187 (antibody, V domains shown)
VH: B42 VH with H26G, T28H
VL: B42 VL
notes: IgG
As to B44, the binding result is listed as “binds”.

B45: MYT2193 (antibody, V domains shown)
VH: B42 VH with H26G, L34H
VL: B42 VL
notes: IgG
In the case of B45, the binding result is on record as “binds”.

B46: MYT2186 (antibody, V domains shown)
VH: B42 VH with H26G, F27H
VL: B42 VL
notes: IgG
Turning to B46, the binding result is “binds”.

B47: MYT2190 (antibody, V domains shown)
VH: B42 VH with H26G, G31H
VL: B42 VL
notes: IgG
B47: the binding result is reported as “binds”.

B48: MYT2189 (antibody, V domains shown)
VH: B42 VH with H26G, S30H
VL: B42 VL
notes: IgG
For the molecule B48, the binding result is “binds”.

B49: MYT2188 (antibody, V domains shown)
VH: B42 VH with H26G, F29H
VL: B42 VL
notes: IgG
For the molecule B49, the binding result was “binds”.

B50: MYT2192 (antibody, V domains shown)
VH: B42 VH with H26G, G33H
VL: B42 VL
notes: IgG
B50: the binding result was “binds”.

B51: MYT2198 (antibody, V domains shown)
VH: B42 VH with H26G, S53H
VL: B42 VL
notes: IgG
In the case of B51, the binding result is “binds”.
